Substitutions are numbered along the chain they refer to.
T1: Hrd1-SBP (S. cerevisiae, UniProt Q08109 1-551)
T1 sequence (looked up): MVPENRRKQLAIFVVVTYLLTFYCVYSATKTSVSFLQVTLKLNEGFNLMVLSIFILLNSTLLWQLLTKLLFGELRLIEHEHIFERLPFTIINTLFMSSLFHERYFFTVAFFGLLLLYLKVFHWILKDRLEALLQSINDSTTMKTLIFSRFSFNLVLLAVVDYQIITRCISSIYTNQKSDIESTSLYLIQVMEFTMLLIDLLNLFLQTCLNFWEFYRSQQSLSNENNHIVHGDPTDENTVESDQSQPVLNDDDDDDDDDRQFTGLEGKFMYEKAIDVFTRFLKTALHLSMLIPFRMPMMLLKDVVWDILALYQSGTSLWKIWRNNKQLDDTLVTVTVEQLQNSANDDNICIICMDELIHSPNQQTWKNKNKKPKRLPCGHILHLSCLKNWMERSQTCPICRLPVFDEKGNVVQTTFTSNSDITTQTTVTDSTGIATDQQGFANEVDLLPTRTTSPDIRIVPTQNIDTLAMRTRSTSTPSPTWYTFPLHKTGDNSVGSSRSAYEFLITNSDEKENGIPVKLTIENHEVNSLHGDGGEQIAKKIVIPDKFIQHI

B1: CPY*-TM2 (other)
chain: ISLQRPLGLDKDVLLQAAEKFGLDLDLDHLLKELDSNVLDAWAQIEHLYPNQVMSLETSTKPKFPEAIKTKKDWDFVVKNDAIENYQLRVNKIKDPKILGIDPNVTQYTGYLDVEDEDKHFFFWTFESRNDPAKDPVILWLNGGPGCSSLTGLFFELGPSSIGPDLKPIGNPYSWNSNATVIFLDQPVNVGFSYSGSSGVSNTVAAGKDVYNFLELFFDQFPEYVNKGQDFHIARESYAGHYIPVFASEILSHKDRNFNLTSVLIGNGLTDPLTQYNYYEPMACGEGGEPSVLPSEECSAMEDSLERCLGLIESCYDSQSVWSCVPATIYCNNAQLAPYQRTGRNVYDIRKDCEGGNLCYPTLQDIDDYLNQDYVKEAVGAEVDHYESCNFDINRNFLFAGDWMKPYHTAVTDLLNQDLPILVYAGDKDFICNWLGNKAWTDVLPWKYDEEFASQKVRNWTASITDEVAGEVKSYKHFTYLRVFNGGHMVPFDVPENALSMVNEWIHGGFSLMLLFFWIPLTLVLLLCFTLSNL
modifications: DyLight800 at the C-terminus, attached with sortase (GGGC-coupled fluorophore)
B2: CPY-TM (other)
chain: ISLQRPLGLDKDVLLQAAEKFGLDLDLDHLLKELDSNVLDAWAQIEHLYPNQVMSLETSTKPKFPEAIKTKKDWDFVVKNDAIENYQLRVNKIKDPKILGIDPNVTQYTGYLDVEDEDKHFFFWTFESRNDPAKDPVILWLNGGPGCSSLTGLFFELGPSSIGPDLKPIGNPYSWNSNATVIFLDQPVNVGFSYSGSSGVSNTVAAGKDVYNFLELFFDQFPEYVNKGQDFHIAGESYAGHYIPVFASEILSHKDRNFNLTSVLIGNGLTDPLTQYNYYEPMACGEGGEPSVLPSEECSAMEDSLERCLGLIESCYDSQSVWSCVPATIYCNNAQLAPYQRTGRNVYDIRKDCEGGNLCYPTLQDIDDYLNQDYVKEAVGAEVDHYESCNFDINRNFLFAGDWMKPYHTAVTDLLNQDLPILVYAGDKDFICNWLGNKAWTDVLPWKYDEEFASQKVRNWTASITDEVAGEVKSYKHFTYLRVFNGGHMVPFDVPENALSMVNEWIHGGFSLNYGIFICYIAFNYIAGVFFYWLA
modifications: DyLight800 at the C-terminus, attached with sortase (GGGC-coupled fluorophore)
B3: CPY-TM2 (other)
chain: B1 chain with R235G
modifications: DyLight800 at the C-terminus, attached with sortase (GGGC-coupled fluorophore)

Assays:
Hrd1-SBP (S. cerevisiae) = Hrd1-SBP (S. cerevisiae) (UniProt Q08109); assay: pull-down
Hrd1-SBP = molecular target: T1, Hrd1-SBP; assay: pull-down

Row | Molecule | Kd (Hrd1-SBP (S. cerevisiae)) [nM] | Kd (Hrd1-SBP) [nM]
1 | misfolded carboxypeptidase Y (CPY*) (from UniProt P00729 21-532) (natural protein) | 20 | –
2 | B1 | – | ~30
3 | B2 | – | ~120
4 | B3 | – | ~110

Reference: article PMC4946995 (Cell, 2016)
